In PMC12239813:

Target: human FLT3 receptor (human) (UniProt P36888)
Assay: SPR

Sequence of UniProt P36888 (P36888 27-993): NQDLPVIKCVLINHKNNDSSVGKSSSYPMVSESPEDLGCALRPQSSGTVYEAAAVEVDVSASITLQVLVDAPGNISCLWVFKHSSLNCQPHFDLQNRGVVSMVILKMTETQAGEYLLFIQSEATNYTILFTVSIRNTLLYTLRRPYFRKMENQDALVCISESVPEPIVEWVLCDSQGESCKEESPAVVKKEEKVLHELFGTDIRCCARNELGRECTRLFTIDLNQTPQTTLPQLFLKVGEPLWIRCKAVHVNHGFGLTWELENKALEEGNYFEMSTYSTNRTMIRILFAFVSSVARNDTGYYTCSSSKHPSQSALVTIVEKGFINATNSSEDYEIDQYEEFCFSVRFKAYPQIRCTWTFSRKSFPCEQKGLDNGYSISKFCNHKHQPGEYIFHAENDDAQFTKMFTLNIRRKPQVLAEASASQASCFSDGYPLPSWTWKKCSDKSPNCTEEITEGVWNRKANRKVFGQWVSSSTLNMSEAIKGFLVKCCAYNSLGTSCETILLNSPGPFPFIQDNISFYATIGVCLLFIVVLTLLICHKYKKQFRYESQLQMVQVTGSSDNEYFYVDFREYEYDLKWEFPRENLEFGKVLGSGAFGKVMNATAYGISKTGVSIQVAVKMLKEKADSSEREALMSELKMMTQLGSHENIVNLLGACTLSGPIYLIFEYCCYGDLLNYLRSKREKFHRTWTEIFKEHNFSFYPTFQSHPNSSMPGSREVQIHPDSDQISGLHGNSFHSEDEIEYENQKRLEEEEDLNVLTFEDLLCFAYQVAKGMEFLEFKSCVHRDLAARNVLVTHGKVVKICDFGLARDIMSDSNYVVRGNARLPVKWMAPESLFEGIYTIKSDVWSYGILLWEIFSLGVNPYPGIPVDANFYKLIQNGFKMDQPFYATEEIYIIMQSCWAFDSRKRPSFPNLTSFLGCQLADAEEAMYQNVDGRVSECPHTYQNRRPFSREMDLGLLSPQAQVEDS

- Kd: 22.3 nM
- koff: 0.812 s⁻¹
Substance: human FLT3L protein (from UniProt P49771 27-184) (ligand)
